Residue numbers refer to the chain shown, from its start. Numbers in names are those of the source.
T1: recombinant FLAG-huDLL3 (human DLL3 extracellular domain with FLAG tag at the N-terminus) (human, UniProt Q9NYJ7 27-492)
T1 construct: Bought (Adipogen, Cat AG40B-0151); the whole entry is named here; also called recombinant DLL3 protein; recombinant human FLAG-huDLL3; not shown: N-terminal FLAG tag
T1 sequence: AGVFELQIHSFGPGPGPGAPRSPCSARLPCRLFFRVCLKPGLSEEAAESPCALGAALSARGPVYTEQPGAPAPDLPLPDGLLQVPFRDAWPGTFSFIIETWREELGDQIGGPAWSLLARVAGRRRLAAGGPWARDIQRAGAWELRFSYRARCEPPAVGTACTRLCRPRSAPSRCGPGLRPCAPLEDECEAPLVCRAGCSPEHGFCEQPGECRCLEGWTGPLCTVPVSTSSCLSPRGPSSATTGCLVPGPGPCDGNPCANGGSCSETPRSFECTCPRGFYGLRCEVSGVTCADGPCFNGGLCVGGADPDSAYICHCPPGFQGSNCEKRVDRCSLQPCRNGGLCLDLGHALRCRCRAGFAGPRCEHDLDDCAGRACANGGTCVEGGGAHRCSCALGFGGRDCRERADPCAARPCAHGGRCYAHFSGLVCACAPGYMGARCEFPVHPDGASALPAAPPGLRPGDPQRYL

B1: humanized anti-DLL3 mAb H1L1 (antibody, V domains shown)
VH: EVRLSQSGGQMKKPGESMRLSCRASGYTFTSYVMHWVRQAPGRRPEWIGYINPYNDATKYARKFQGRATLTSDKYSDTAFLELRSLTSDDTAVYYCARGGYDYDGDYWGRGAPVTVSS
VL: EIVMTQSPGTLSLSPGERATLSCHASQNINVWLSWYQQKPGQAPRLLIYKASNLHTGIPDRFSGSGSGTDFTLTISRLEPEDFAVYYCQQGQSYPFTFGQGTKVEIK
notes: Humanized 13P9A
B2: humanized anti-DLL3 mAb H1L2 (antibody, V domains shown)
VH: B1 VH
VL: B1 VL with M4L
notes: also called anti-DLL3 parental mAb
B3: humanized anti-DLL3 mAb H1L3 (antibody, V domains shown)
VH: B1 VH
VL: EIVMTQSPATLSLSPGETAIISCHASQNINVWLSWYQQRPGQAPRLLIYKASNLHTGIPDRFSGSGWGTDFNLSISNLESGDFGVYYCQQGQSYPFTFGQGTKVEIK
B4: humanized anti-CD47 mAb KH1L1 (antibody, V domains shown)
VH: QVQLVQSGAEVKKPGSSVKVSCKASGYTFTSYWMHWVRQAPGQGLEWIGNIDPSDSETHYAQKFQGRATLTVDKSTSTAYMELSSLRSEDTAVYYCAGTDLAYWGQGTLVTVSS
VL: B1 VL
notes: Humanized VH of anti-CD47 mAb 17C6A with humanized VL of anti-DLL3 13P9A
B5: humanized anti-CD47 mAb KH3L1 (antibody, V domains shown)
VH: EVRLSQSGGQMKKPGESMRLSCRASGYTFTSYWMHWVRQAPGRRLEWIGNIDPSDSETHYARKFQGRATLTVDKYSDTAFLELRSLTSDDTAVYYCAGTDLAYWGRGAPVTVSS
VL: B1 VL
B6: humanized anti-CD47 mAb KH3L2 (antibody, V domains shown)
VH: B5 VH
VL: B1 VL with M4L
B7: humanized anti-CD47 mAb KH1L3 (antibody, V domains shown)
VH: B4 VH
VL: B3 VL
B8: humanized anti-CD47 mAb KH2L2 (antibody, V domains shown)
VH: B4 VH with S16A, A68V, A79V
VL: B1 VL with M4L
notes: also called anti-CD47 parental mAb
B9: humanized anti-CD47 mAb KH3L3 (antibody, V domains shown)
VH: B5 VH
VL: B3 VL
B10: humanized anti-CD47 mAb KH2L1 (antibody, V domains shown)
VH: B4 VH with S16A, A68V, A79V
VL: B1 VL
B11: humanized anti-CD47 mAb KH1L2 (antibody, V domains shown)
VH: B4 VH
VL: B1 VL with M4L
B12: humanized anti-CD47 mAb KH3L4 (antibody, V domains shown)
VH: B5 VH
VL: B3 VL with F96W
B13: humanized anti-CD47 mAb KH2L3 (antibody, V domains shown)
VH: B4 VH with S16A, A68V, A79V
VL: B3 VL
B14: anti-CD47/DLL3 bispecific antibody BA1 (KH2/H1/L2) (bispecific antibody)
heavy 1: B4 VH with S16A, A68V, A79V
heavy 2: B1 VH
light: B1 VL with M4L
notes: Common light chain L2; anti-CD47 arm KH2 (knob), anti-DLL3 arm H1 (hole); not shown: IgG1 heavy chain constant region, knob; IgG1 heavy chain constant region, hole; kappa light chain constant region
B15: anti-CD47/DLL3 bispecific antibody BA4(C) (bispecific antibody)
heavy 1: B4 VH with S16A, A68V, A79V
heavy 2: B1 VH
light: B1 VL with M4L
notes: Variable regions of BA1 on the IgG4 framework with the same cysteine mutations as BA1(C); not shown: IgG4 heavy chain constant region ("IgG4 frame work") with the same cysteine mutation as BA1(C); knob mutation not explic; hole mutations not expli; kappa light chain constant region
B16: anti-CD47/DLL3 bispecific antibody BA1(C) (bispecific antibody)
heavy 1: B4 VH with S16A, A68V, A79V
heavy 2: B1 VH
light: B1 VL with M4L
notes: BA1 further modified by S354C on the anti-CD47 HC (KH2) and Y349C on the anti-DLL3 HC (H1); not shown: IgG1 heavy chain constant region, knob with added cysteine; IgG1 heavy chain constant region, hole with added cysteine; kappa light chain constant region

The binders below were run against T1, recombinant FLAG-huDLL3 (human DLL3 …) (assay: ELISA, FLAG-huDLL3 coated on plate).
Work on B1 yielded an EC50 of 0.13 nM. Work on B2 yielded an EC50 of 0.12 nM. Work on B3 yielded an EC50 of 0.15 nM.

Each binder was assayed against T2, human CD47 extracellular domain (CD47(ECD)) (human, UniProt Q08722 19-139) (assay: ELISA, human CD47(ECD) coated on plate).
T2 construct: extracellular domain; Bought protein; also called human CD47(ECD); immobilized CD47
T2 sequence (Q08722 19-139 limits assumed): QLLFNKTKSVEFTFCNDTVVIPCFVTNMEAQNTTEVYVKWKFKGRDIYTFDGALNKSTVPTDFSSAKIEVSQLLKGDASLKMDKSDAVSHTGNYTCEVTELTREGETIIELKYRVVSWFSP
Procedure: The purified mAbs were analyzed for their ability to bind to the extracellular domain of CD47 (CD47(ECD)) in an ELISA assay as follows: human CD47(ECD) (AcroBio, Cat #: CD7-HA2E9-50 μg) in carbonate coating buffer (50 μL/well at 1 μg/mL) was coated on a 96-well ELISA plate for 1 hour at room temperature. After washing, the plate was blocked in 5% BSA in TBST for 1 hour at room temperature and washed again. In each well of the plate, an antibody at 50 μL/well at various concentrations was added and incubated for 1 hour at room temperature. The plate was washed and the binding of the antibody to the immobilized CD47 was detected by incubating with anti-human IgG conjugated to horseradish peroxidase (hIgG-HRP) (ThermoFisher Scientific, Cat #: H10007) for 60 minutes at room temperature. Then after washing, the ELISA was developed using One-step Detection Solution (ThermoFisher Scientific, Cat #: 34028) and measured as the absorbance at 450 nm.
B4 showed an EC50 of 1.17 nM. With B5 the EC50 was 0.09 nM. Binder B6 has an EC50 of 0.08 nM. For B7, the EC50 was 0.76 nM. Work on B8 yielded an EC50 of 0.18 nM. B9 gave an EC50 of 0.18 nM. B10 was tested, and the EC50 was 0.19 nM. Work on B11 yielded an EC50 of 0.64 nM. B12 gave an EC50 of 0.08 nM. B13 was tested, and the EC50 was 0.09 nM.

What follows are binders tested against T2, human CD47 extracellular domain … (assay: ELISA, CD47(ECD) coated on regular plate (FIG. 5)).
B14: binds. B15: binds. B16: binds.

— patent US20210047399A1 (PHANES THERAPEUTICS, published 2021)
